Patent US20030018175A1

B1: wild-type plasma APC (enzyme)
chain: ANSFLEELRHSSLERECIEEICDFEEAKEIFQNVDDTLAFWSKHVDGDQCLVLPLEHPCASLCCGHGTCIDGIGSFSCDCRSGWEGRFCQREVSFLNCSLDNGGCTHYCLEEVGWRRCSCAPGYKLGDDLLQCHPAVKFPCGRPWKRMEKKRSHLLIDGKMTRRGDSPWQVVLLDSKKKLACGAVLIHPSWVLTAAHCMDESKKLLVRLGEYDLRRWEKWELDLDIKEVFVHPNYSKSTTDNDIALLHLAQPATLSQTIVPICLPDSGLAERELNQAGQETLVTGWGYHSSREKEAKRNRTFVLNFIKIPVVPHNECSEVMSNMVSENMLCAGILGDRQDACEGDSGGPMVASFHGTWFLVGLVSWGEGCGLLHNYGVYTKVSRYLDWIHGHIRDKEAPQKSWAP
modifications: two chains: light 1-155, heavy 170-419

What follows are molecules tested against human alpha-1-antitrypsin (Sigma) (human) (UniProt P01009) (assay: cell-based or functional assay).
Sequence of UniProt P01009 (P01009 25-418 limits assumed): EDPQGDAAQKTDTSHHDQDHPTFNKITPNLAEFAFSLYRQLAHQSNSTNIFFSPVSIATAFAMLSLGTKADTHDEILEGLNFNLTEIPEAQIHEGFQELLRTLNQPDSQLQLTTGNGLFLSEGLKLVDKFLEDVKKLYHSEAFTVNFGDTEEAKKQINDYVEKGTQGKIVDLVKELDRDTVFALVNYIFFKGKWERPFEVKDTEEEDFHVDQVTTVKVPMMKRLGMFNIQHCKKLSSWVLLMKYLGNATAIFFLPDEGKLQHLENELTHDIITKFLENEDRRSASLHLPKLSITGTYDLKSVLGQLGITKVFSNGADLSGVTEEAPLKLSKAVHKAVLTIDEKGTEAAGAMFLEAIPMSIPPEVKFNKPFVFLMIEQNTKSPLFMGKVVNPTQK

% residual amidolytic activity, 16.6 µM inhibitor, 20 h at 37 °C	% residual amidolytic activity, 42.3 µM inhibitor, 20 h at 37 °C	Molecule
62%	53%	APC variant K251N (enzyme)
80%	81%	APC conjugate D214N (enzyme)
21%	1%	APC variant D214A (control) (enzyme)
28%	5%	APC variant S190N+K192T (enzyme)
9%	2%	APC variant M338A (control) (enzyme)
7%	< 1%	wild-type COS 7 APC (enzyme)
42%	9%	APC conjugate S305N+E307T (enzyme)
68%	44%	APC conjugate L386N+H388T (enzyme)
12%	< 1%	APC variant D189N+K191N (control) (enzyme)
72%	40%	APC conjugate S336N+M338T (enzyme)
50%	30%	APC variant Y302N (enzyme)
10%	< 1%	APC conjugate E307N+E309T (enzyme)
59%	24%	APC conjugate K191N+K193T (enzyme)
90%	77%	APC conjugate D189N+K191T (enzyme)
38%	12%	APC conjugate M338N (enzyme)
62%	34%	APC variant S252N (enzyme)
56%	38%	APC conjugate T253N+D255T (enzyme)
20%	4%	APC conjugate K217N+L219T (enzyme)
10%	2%	B1
